Measurements reported in the supplement of paper PMC11246515.
± gives the standard deviation of the averaged measurements.

Experiment: total protein half-life in vivo (active degradation + dilution); higher = more stable protein
[1] = E. coli NCM3722 delta-clpP delta-lon delta-hslV, growth: N-lim chemostat, doubling time 6 h
[2] = E. coli NCM3722 delta-clpP, growth: N-lim chemostat, doubling time 6 h
[3] = E. coli NCM3722 delta-hslV, growth: N-lim chemostat, doubling time 6 h
[4] = E. coli NCM3722 delta-lon, growth: N-lim chemostat, doubling time 6 h
[5] = E. coli NCM3722 delta-smpB, growth: N-lim chemostat, doubling time 6 h
[6] = wild type E. coli NCM3722, growth: C-lim chemostat, doubling time 3 h
[7] = wild type E. coli NCM3722, growth: C-lim chemostat, doubling time 6 h
[8] = wild type E. coli NCM3722, growth: C-lim chemostat, doubling time 12 h
[9] = wild type E. coli NCM3722, growth: N-lim chemostat, doubling time 6 h
[10] = wild type E. coli NCM3722, growth: N-lim chemostat, doubling time 12 h
[11] = wild type E. coli NCM3722, growth: P-lim chemostat, doubling time 6 h
[12] = wild type E. coli NCM3722, growth: P-lim chemostat, doubling time 12 h

Sequence	total protein half-life in vivo [1]	total protein half-life in vivo [2]	total protein half-life in vivo [3]	total protein half-life in vivo [4]	total protein half-life in vivo [5]	total protein half-life in vivo [6]	total protein half-life in vivo [7]	total protein half-life in vivo [8]	total protein half-life in vivo [9]	total protein half-life in vivo [10]	total protein half-life in vivo [11]	total protein half-life in vivo [12]
MKLPVREFDAVVIGAGGAGMRAALQISQSGQTCALLSKVFPTRSHTVSAQGGITVALGNTHEDNWEWHMYDTVKGSDYIGDQDAIEYMCKTGPEAILELEHMGLPFSRLDDGRIYQRPFGGQSKNFGGEQAARTAAAADRTGHALLHTLYQQNLKNHTTIFSEWYALDLVKNQDGAVVGCTALCIETGEVVYFKARATVLATGGAGRIYQSTTNAHINTGDGVGMAIRAGVPVQDMEMWQFHPTGIAGAGVLVTEGCRGEGGYLLNKHGERFMERYAPNAKDLAGRDVVARSIMIEIREGRGCDGPWGPHAKLKLDHLGKEVLESRLPGILELSRTFAHVDPVKEPIPVIPTCHYMMGGIPTKVTGQALTVNEKGEDVVVPGLFAVGEIACVSVHGANRLGGNSLLDLVVFGRAAGLHLQESIAEQGALRDASESDVEASLDRLNRWNNNRNGEDPVAIRKALQECMQHNFSVFREGDAMAKGLEQLKVIRERLKNARLDDTSSEFNTQRVECLELDNLMETAYATAVSANFRTESRGAHSRFDFPDRDDENWLCHSLYLPESESMTRRSVNMEPKLRPAFPPKIRTY [P0AC41]	6.32 ± 0.098 h	6.04 ± 0.75 h	5.73 ± 0.33 h	5.17 ± 0.66 h	5.69 ± 0.26 h	3.17 ± 0.15 h	6.49 ± 0.39 h	11.6 ± 1.4 h	5.81 ± 0.35 h	11 ± 0.49 h	6.2 ± 0.12 h	13.3 ± 0.3 h
MIKQTIVALLLSVGASSVFAAGTVKVFSNGSSEAKTLTGAEHLIDLVGQPRLANSWWPGAVISEELATAAALRQQQALLTRLAEQGADSSADDAAAINALRQQIQALKVTGRQKINLDPDIVRVAERGNPPLQGNYTLWVGPPPSTVTLFGLISRPGKQPFTPGRDVASYLSDQSLLSGADRSYAWVVYPDGRTQKAPVAYWNKRHVEPMPGSIIYVGLADSVWSETPDALNADILQTLTQRIPQ	7.07 h	6.22 h	–	7.193 ± 0.064 h	5.1 ± 0.077 h	–	–	–	–	–	–	–
MADLDDIKDGKDFRTDQPQKNIPFTLKGCGALDWGMQSRLSRIFNPKTGKTVMLAFDHGYFQGPTTGLERIDINIAPLFEHADVLMCTRGILRSVVPPATNRPVVLRASGANSILAELSNEAVALSMDDAVRLNSCAVAAQVYIGSEYEHQSIKNIIQLVDAGMKVGMPTMAVTGVGKDMVRDQRYFSLATRIAAEMGAQIIKTYYVEKGFERIVAGCPVPIVIAGGKKLPEREALEMCWQAIDQGASGVDMGRNIFQSDHPVAMMKAVQAVVHHNETADRAYELYLSEKQ	4.41 ± 0.29 h	3.51 ± 0.53 h	3.03 ± 0.036 h	3.91 ± 0.79 h	3.6 ± 0.39 h	3.27 ± 0.084 h	5.1 ± 0.23 h	8.52 ± 0.53 h	3.58 h	4.43 ± 0.74 h	5.44 ± 0.21 h	11 ± 0.47 h
MPQRILVLGASGYIGQHLVRTLSQQGHQILAAARHVDRLAKLQLANVSCHKVDLSWPDNLPALLQDIDTVYFLVHSMGEGGDFIAQERQVALNVRDALREVPVKQLIFLSSLQAPPHEQSDHLRARQATADILREANVPVTELRAGIIVGAGSAAFEVMRDMVYNLPVLTPPRWVRSRTTPIALENLLHYLVALLDHPASEHRIFEAAGPEVLSYQQQFEHFMAVSGKRRWLIPIPLPTRWISVWFLNVITSVPPTTARALIQGLKHDLLADDTALRALIPQRLIAFDDAVRSTLKEEEKLVNSSDWGYDAQAFARWRPEYGYFAKQAGFTVKTSASLAALWQVVNQIGGKERYFFGNILWQTRALMDRAIGHKLAKGRPEREYLQTGDAVDSWKVIVVEPEKQLTLLFGMKAPGLGRLCFSLEDKGDYRTIDVRAFWHPHGMPGLFYWLLMIPAHLFIFRGMAKQIARLAEQSTD	–	6.7 ± 0.22 h	6.57 ± 0.8 h	6.64 ± 0.098 h	6.11 ± 0.37 h	2.94 ± 0.081 h	5.88 ± 0.11 h	12.1 ± 2.1 h	6.42 ± 0.19 h	11.8 ± 0.4 h	5.23 ± 0.016 h	11.1 ± 0.83 h
